Here are results for 13 sequences from the DeepSol protein solubility set.

This data set can be described thus: soluble on expression in E. coli; label from the status in PepcDB or PDB records.
In the case of “MGKRSGASYRSRRPKLACADWDKRMMQTQPFRLPRFTPFGVIEKGVELATGLSQLERYYQQRPTTRDGFEFMRYTLEALNVHYQVDRGRVEQIPAQGPVVIVANHPLGAIEGVILADLVGQVRKDVKVLANQLLKRLPEIEPLFIGVDVFNGAQASKTNARGIREAHRHLAEGGVLIVFPAGEVSTPQKETGQLSDIDWSQSVAKFIQRSQARCVPIYIHGRNSAWFYRAGKIHPLLRTAMLGRELLNKSASTISLCIGQPIPYAELKEFTKDEDVVNYLRLNTYLMSPHGQVESAKVSFTIPVIDPVPKAALIAELAQLDKQAKLLEQGEFTVYCVPSTHIPLMMQEIGRVREISFRAVGEGSGQACDVDAYDHHYWQLFVWNREQSELVGAYRMGLVDKIVAERGLQGLYSRSLFHYDHAFLATLENAIELGRSVVAEQYQRNLNSLLLLWKGIARFVELNPHYTHLFGPVSISNDYSPAARQLMAATLSIHHYDQHKAALVSPSTPLRAGTEVFWQKSLLSALASVSLLSKVVARMEQGNGLPVLLRQYLGMNGKLVCLNVDPAFNDALDGLIVVNLKQVPLKTLAKYMGKEAAQHYLCSVT”, the “soluble on expression in E. coli” value is “not soluble”.
Next, “MSQQYVYSMLRVSKVVPPQKTIIKDISLSFFPGAKIGLLGLNGAGKSTVLRIMAGVDKEFEGEAVPMGGIKIGYLPQEPELDPEKTVREEVESGLGEVAAAQKRLEEVYAEYANPDADFDALAEEQGRLEAIIAAGSSTGGGAEHELEIAADALRLPEW”: “not soluble”.
The result for “MSEGSKQNKKSTDAFSKYMRKLFGIQEITESQREYIEKLERELESAKGTLSTREEKEMIRGLVKFGNIMVKQIMCPRMDMAAVDIALNYEQLQEYISTCGFSRIPVYKESADKIEGVLNIKDLFPFYNKEKDFNWQQLIRTVEFIPETKLIEELLREFQLKHLHMAIVVDEYGGTAGLITMEDVIEEIVGDIHDEYDDDEKPYAQLSDTSYLFEGKISLVDFYKAIELDKDIFDEVKGESETLGGLLLNINSDLPRLGDEIIYEGYVFKIDAVNSKRILRVKVTVPENSENEK” reads “soluble”; that for “AIWRSRSFDEAIEMFRESLYSAKNEVIVVTPSEFFETIREDLIKTLERGVTVSLYIDKIPDLSEFKGKGNFFVRQFYKLNHLIGMTDGKEVVTIQNATFDSIGPPSFKSTYPEIIFSQYSLIIEIFKESTLEKEIIGNPKDIRFFAMFHAVDFVKNHLKNRNIYAEITGKNLESGRLETLTGRVVGYTLSLREAVNNIHLETENGVVKVGGMFAVIEDYESTEIKFIMGGSRS”, “soluble”; that for “MGSDKIHHHHHHMRVYIGCGGYTDEDWTAPGLIYEGVKKDAFLETYAHHFDAVELNSSFYAIPGLKAFEGMVRKSGGWVRFAVKLNKVFTHVRAPTDTDFDRMLQSPEPLREAGMMGPYLAQFPYSFHRTAANRKYLALLTERFAGHELAVELRHASWDKPEVREGMGEFGIIWVSPDYPPVGGMPEPQVHVTGDVGYLRLHGRNRETWWEGQSAGERHDYLYNRAEMDEWAEKIAAVAGDLSELYVFFQNTTGGHALKNIPMLREALNARGVPVQTPEAHDGGRLL”, “not soluble”.
For the sequence “ISTEEAAPDGPPMDVTLQPVTSQSIQVTWKAPKKELQNGVIRGYQIGYRENSPGSNGQYSIVEMKATGDSEVYTLDNLKKFAQYGVVVQAFNRAGTGPSSSEINATTLE”, the “soluble on expression in E. coli” value is “soluble”.
Regarding “MSKIASEVVATTLNDWYIAIKKQKVDESIKYYSEIKKLFDEMEEDQEVLAYYSLLEERHKMLLHSSRGEPLQKHTYFTEDNQNFITKTNDKLEYNFYLFEAMYEAYNKNYDRAINLYGLAEKKLAEIPDEIEAAEFYSKVSYLYTLVKQSIVAQHYIKNAISIYKRHPDYKCKLATSTMIAAANYADMKRFEEAEQYYLEAIDIAKETKDEFLKAQLFHNLSIVYSDWNKPDKCIESLEKAIGNESWLHSIYYINSLFMMIKELFKIDEKMKAINFYNKAQERLILMENKVYEAKISILYNLYCGELKNNFNNCISNIEFLKQQNELESVDELSYIAAKRFESIGAFEEATSFFNAKIWAE”, the “soluble on expression in E. coli” value is on record as “soluble”.
The result for “MGSDKIHHHHHHMFDDADDIDTETVEEWEASAEFGLLYTSGNTETESLKGKFTASRDVQNWRHKGVFDYYTSEQKDQDTGEMNETADRIFISAQSNYKFDPDSRDSLFVFGSYEEDEFSGFAYQATVATGYGARYRYDEDIYADYEIGPGYSRTKPVQVEGEPPVESDGSMILRLAGSLNWKISENSRFSALLSSEVGEDNTKSKAELSVSANINSALAMKVSLGANHNSHVADESIEKLDTETAVTLVYSF” reads “not soluble”; that for “MSLEKLLPDPDPTFERPYTLCLSLDDLLIHSEWTREHGWRIAKRPGVDYFIRYLSQYYELVLFTTTPYATGEPVMRKLDPFRLILWPLYREATKFEDGEIVKDLSYLNRDLSKVIIIDTKAKHVRNQPDNAIILDPWKGDKDDKNLVNLIPFLEYIHTMQYSDVRKVIKSFDGKDIPTEGHHHHHH”, “soluble”; that for “MGSDKIHHHHHHMLYSFSRLVYRILTVVGVLDGRAAYKRRIQLTGRSTYIVSLPKEWVETWRLGRGSEVTLEVMPDGSLKIAPSASERPARRDRRVIDLRGKELDLSFVIKSVIASYLAGYDEVLLLFGDGSVDAVSKIRSIVESNILGFNVLEEGPGYIVFVSVVDHRSMEFSRALSRMARIAAEMIRDVARGLENGDRGLLDLVAERDQLVDKLYLYMARQMTMASSGRLPLKDLGVYSPAEIVHLFLAVKSIERVADHATILSVRVSASLGAGMSVENGLSSLVMEAAEGFSKSVEALIKADAGLAASIAPVLSEYRSRLESMTAQEFLRGGGSLLRYLVIDSMRRITGYSLDIAEAALDISAVREKAKSEGP”, “not soluble”.
Next, “MNMIPKVAMFGTGYVGLVSGVCIADFGINVICVDVDKEKIDGLNNGKIPIYEPGLDVFLERNIKAGRIQFTTDAKMAIEESNVLFIAVGTPPKENGEADMQYVYAVAETIGQYMNGYKVIVDKSTVPVGTGQVVKKIIADKLKERGVEYSFDVVSNPEFLREGKALYDFTHPDRVVIGVESEEVAEIMKKVYRPLYINETPFVITNIETAEMIKYASNAFLATKITFINEIANLCEKVGANVQQVAMAMGRDGRIGPKFLHAGPGFGGSCFPKDTKALVQIAEKHGVQMSVVNAVIEANERQKKMVAEKLEKFAGDLKGKTIGILGLAFKPETDDVREAPALTIIADLIERGASIRAYDPQAMEEAKKALRKYADNITYCKHAYDTAESVDALVIVTEWHEFRNMDLTLLKKIMRGNIFYDARNIYSRKDIEEKGFVFIGTGV”: “not soluble”; “MILAILQARMSSTRLPGKVLMPLQRQPMIVRQIERVARSKRIDKLVVATSDRPEDDAIEAAVRREGIAVFRGSLDNVQQRFIGALDAHPADHVVRLTADCPLADPTLIDATIDLCLSKGADYVSNTPEGHAHPKGTDVEVMTAAALRRAAAEATTKEAFEHVTWDLWNQPQRWTCAWLPCFPDQGAVRWTVDRPDDYAFVAAVYDALYPANRAFTSDDIRAFVAGRPDLQDYGGDRRALEHHHHHH”: “not soluble”.
Next, “MSLDYGINFWSDNDFIIEDGQVKINYKTKPAIIDIVKKVREEGYRGPLLLRFPHLIKKQVDKIFTHFETSIKQYHYKGQFKAVFPLKVNQFPNFVLPLVELSQNRCYGLEAGSKAELIIAMAYTNKGSPITVNGFKDKEMISLGFIAANMGHEITLTIEGLNELETIIEVAEEMGKPCPNIGLRIRLHSSGIGIWAKSGGINSKFGLTSTELLEGIRLLEKHKLIEKFTMIHFHIGSQISDISPLKKAMREAGNIYAELRKMGAKNLKSVNIGGGLAVEYTQHEGSPNRNYTLDEFAGDVVFSLKEIAKNKKEPEPDIYIESGRYIAASHALLVAPVLELFSQEYDEKALHLKDKNPQLIEELNELYNTVNEKYAIEYLHDSLDHMESLLTLFDLGYIDLQDRSNTEILVHLIIKKVIKILKHKNHSDIIRIQEQVQERYLLNCSFFQSLPDYWGLEQSFPVMPLDRLNKRPTRSASLWDITCDSDGEIGFDLNKPLFLHDVDVTTEEYFLGFFLVGAYQEVLGMRHNLFTHPTELSVEFEEDGTHSVTNLLEAQTILDVLDDLDYDEGHHHHHH”: “not soluble”.
